Laboratory results reported in patent publication US20230052256A1 (DIZAL JIANGSU PHARMACEUTICAL, published 2023).

Key:
[1] = molecular target: T1, cynomolgus FGFR2b-Fc (ECD fused to murine Fc) (cynomolgus monkey); test: ELISA, plate coated with cynomolgus FGFR2b-Fc, anti-human IgG HRP
T1 construct: also called recombinant cynomolgus FGFR2b-Fc; cyno FGFR2b
Method: (§1) The cross-species binding of Ab 26c to recombinant cyno, rat/mouse, and human FGFR2b-Fc fusion proteins was conducted with ELISA. In brief, 96-well ELISA plate were coated with about 100 μl/well 0.1 μg/ml recombinant human FGFR2b-Fc, recombinant rat/mouse FGFR2b-Fc, or recombinant cynomolgus FGFR2b-Fc protein in PBS overnight. Then the plate was blocked with 2% BSA in PBS with 0.05% Tween20 and incubation with antibody samples for 60 min at room temperature, and then washed twice in 1×TBST (Cell Signaling Technology, #9997) and followed by incubation with anti-human IgG HRP conjugate for 60 min at a room temperature. HRP activity was detected with tetra-methylbenzidine substrate (Cell Signaling Technology, #7004) and the reaction was stopped with stop solution (Cell Signaling Technology, #7002). The plate was read at 450 nm. […] Ab 26c has the highest binding affinity to rat/mouse FGFR2b, followed by human FGFR2b, and then cynomolgus FGFR2b.

[2] = molecular target: T2, human FGFR2b ECD fused with murine Fc (human); test: ELISA, plate coated with human FGFR2b-Fc, anti-human IgG HRP
T2 construct: The ELISA text says only 'recombinant human FGFR2b-Fc'; also called recombinant human FGFR2b-Fc; hu FGFR2b
T2 chain: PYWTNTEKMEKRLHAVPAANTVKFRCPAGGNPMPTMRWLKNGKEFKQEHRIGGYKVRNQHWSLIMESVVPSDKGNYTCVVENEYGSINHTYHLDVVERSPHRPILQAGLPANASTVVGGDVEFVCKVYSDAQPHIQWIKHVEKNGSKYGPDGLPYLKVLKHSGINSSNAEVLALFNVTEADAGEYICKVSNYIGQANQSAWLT
Method: as §1

[3] = molecular target: T3, human FGFR2b, endogenous, on KATOIII gastric cancer cells (human, UniProt P21802-3 22-822); test: cell-based or functional assay
[4] = molecular target: T3, human FGFR2b, endogenous, on KATOIII …; test: flow cytometry on KATOIII cells
Method: To confirm that the selected antibodies can bind to the endogenous forms of FGFR2b on the cell membrane, flow cytometry was performed using FGFR2b expressing KATOIII cells. All antibodies were prepared in PBS buffer with 10% donkey serum (Jackson Immunogen #017-000-121). 500,000 KATOIII cells were incubated with […] of different concentration of anti-FGFR2b antibody for 60 min at 4° C. Cells were washed twice and incubated in 100 μl of 10 μg/ml of 2nd IgG-Alexa488 antibody (Jackson Immunogen #709546149) for 30 minutes at 4° C. in the dark. Cells were washed three times and resuspended with wash buffer and analyzed on a flow cytometer.

[5] = molecular target: T4, human FGFR2b (beta)-Fc, human Fc fusion (human); test: SPR (Biacore T200), hFGFR2b-Fc amine-coupled to CM5 chip, antibody injected
T4 construct: range 65-267; Made in 293F cells; The Biacore and Ab 26 ELISA text says only 'hFGFR2b-Fc' or 'FGFR2b'; also called hFGFR2b-Fc; human FGFR2b-Fc
Method: (§2) The binding of antibodies to human FGFR2b or human FGFR1b antigen was determined by surface plasmon resonance (Biacore). Briefly, CM5 sensor chip (GE Healthcare Life Sciences) was firstly activated by a 4 min injection of 1:1 freshly mixture of 50 mM N-hydroxysuccinamide (NHS): 200 mM EDC […]. Then hFGFR2b-Fc or hFGFR1b-Fc was immobilized to activated CM5 sensor chip using Amine Coupling Kit (GE Healthcare Life Sciences) and 1M ethanolamine as the blocking reagent. About 20-30 response units (RU, 1 RU represents the binding of 1 pg of protein per square mm) of antigen protein were captured.
(§3) Antibodies were diluted in HBS-EP+ running buffer (GE Healthcare Life Sciences) (10 mM HEPES, 150 mM NaCl, 3 mM EDTA, 0.05% surfactant P20, pH 7.4) and injected at serial concentration (0, 6.25, 12.5, 25, 50, 100, 150, 200 nM) and surface regeneration of the CM5 sensor chip were included in each running cycle. The association constant, dissociation constant were calculated with Biacore T200 evaluation software (version 1.0). […] In addition, Ab 26c is distinguished from the antibody FPA144 in terms of FGFR1b binding.

[6] = molecular target: T4, human FGFR2b (beta)-Fc, human Fc fusion; test: SPR (Biacore T200), hFGFR2b-Fc amine-coupled to a CM5 chip, antibody injected at 0-200 nM
Method: as §2, §3

[7] = molecular target: T5, recombinant human FGFR1b-Fc (R&D Systems) (human, UniProt P11362-19 22-376, limits assumed); test: SPR (Biacore T200), hFGFR1b-Fc amine-coupled to CM5 chip, antibody injected
T5 construct: Bought from R&D Systems; also called hFGFR1b-Fc; not shown: human Fc of the bought fusion protein
T5 sequence (looked up): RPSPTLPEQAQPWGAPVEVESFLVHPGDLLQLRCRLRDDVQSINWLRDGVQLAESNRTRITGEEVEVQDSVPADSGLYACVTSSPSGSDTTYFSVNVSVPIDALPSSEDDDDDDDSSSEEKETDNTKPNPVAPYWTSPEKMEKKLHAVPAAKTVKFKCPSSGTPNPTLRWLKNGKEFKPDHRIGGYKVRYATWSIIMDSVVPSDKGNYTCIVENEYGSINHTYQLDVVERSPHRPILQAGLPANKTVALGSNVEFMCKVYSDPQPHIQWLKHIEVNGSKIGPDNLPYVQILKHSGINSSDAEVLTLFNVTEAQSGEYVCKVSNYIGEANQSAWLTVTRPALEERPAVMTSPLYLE
Method: as §2, §3

[8] = molecular target: T5, recombinant human FGFR1b-Fc (R&D …); test: SPR (Biacore T200), hFGFR1b-Fc amine-coupled to a CM5 chip, antibody injected at 0-200 nM
Method: as §2, §3

[9] = molecular target: T6, rat/mouse FGFR2b ECD fused with murine Fc (rat); test: ELISA, plate coated with rat/mouse FGFR2b-Fc, anti-human IgG HRP
T6 construct: also called recombinant rat/mouse FGFR2b-Fc; rat FGFR2b
Method: as §1

[10] = molecular target: T5, recombinant human FGFR1b-Fc (R&D …); test: ELISA on HuFGFR1b
[11] = molecular target: T7, recombinant human FGFR3b-Fc (R&D Systems) (human, UniProt P22607-2 23-377); test: ELISA on HuFGFR3b
T7 construct: Bought from R&D Systems; not shown: human Fc of the bought fusion protein
T7 sequence (looked up): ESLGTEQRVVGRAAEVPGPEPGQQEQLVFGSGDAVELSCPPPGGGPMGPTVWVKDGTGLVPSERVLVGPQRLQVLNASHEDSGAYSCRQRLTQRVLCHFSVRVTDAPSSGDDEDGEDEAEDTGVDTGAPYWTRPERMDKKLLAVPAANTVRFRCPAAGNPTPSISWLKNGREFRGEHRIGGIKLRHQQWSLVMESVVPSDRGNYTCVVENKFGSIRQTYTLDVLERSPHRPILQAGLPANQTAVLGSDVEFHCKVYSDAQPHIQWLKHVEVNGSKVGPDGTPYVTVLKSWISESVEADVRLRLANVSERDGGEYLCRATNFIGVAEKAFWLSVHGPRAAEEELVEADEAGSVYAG

[12] = molecular target: T4, human FGFR2b (beta)-Fc, human Fc fusion; test: ELISA on HuFGFR2b
[13] = molecular target: T8, recombinant human FGFR4-Fc (R&D Systems) (human, UniProt P22455 22-369); test: ELISA on HuFGFR4
T8 construct: Bought from R&D Systems; not shown: human Fc of the bought fusion protein
T8 sequence (looked up): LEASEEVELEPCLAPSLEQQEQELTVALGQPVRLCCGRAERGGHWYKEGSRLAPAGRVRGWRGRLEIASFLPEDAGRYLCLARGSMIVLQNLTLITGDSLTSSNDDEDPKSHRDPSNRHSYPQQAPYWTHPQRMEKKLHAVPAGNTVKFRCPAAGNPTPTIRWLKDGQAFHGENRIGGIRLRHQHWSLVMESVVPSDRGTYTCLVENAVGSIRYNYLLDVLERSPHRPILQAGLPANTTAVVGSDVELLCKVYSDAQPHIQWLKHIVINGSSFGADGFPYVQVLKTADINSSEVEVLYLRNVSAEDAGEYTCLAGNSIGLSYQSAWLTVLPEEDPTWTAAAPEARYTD

T3 sequence (P21802 other isoform, or with tags, fused parts or gaps): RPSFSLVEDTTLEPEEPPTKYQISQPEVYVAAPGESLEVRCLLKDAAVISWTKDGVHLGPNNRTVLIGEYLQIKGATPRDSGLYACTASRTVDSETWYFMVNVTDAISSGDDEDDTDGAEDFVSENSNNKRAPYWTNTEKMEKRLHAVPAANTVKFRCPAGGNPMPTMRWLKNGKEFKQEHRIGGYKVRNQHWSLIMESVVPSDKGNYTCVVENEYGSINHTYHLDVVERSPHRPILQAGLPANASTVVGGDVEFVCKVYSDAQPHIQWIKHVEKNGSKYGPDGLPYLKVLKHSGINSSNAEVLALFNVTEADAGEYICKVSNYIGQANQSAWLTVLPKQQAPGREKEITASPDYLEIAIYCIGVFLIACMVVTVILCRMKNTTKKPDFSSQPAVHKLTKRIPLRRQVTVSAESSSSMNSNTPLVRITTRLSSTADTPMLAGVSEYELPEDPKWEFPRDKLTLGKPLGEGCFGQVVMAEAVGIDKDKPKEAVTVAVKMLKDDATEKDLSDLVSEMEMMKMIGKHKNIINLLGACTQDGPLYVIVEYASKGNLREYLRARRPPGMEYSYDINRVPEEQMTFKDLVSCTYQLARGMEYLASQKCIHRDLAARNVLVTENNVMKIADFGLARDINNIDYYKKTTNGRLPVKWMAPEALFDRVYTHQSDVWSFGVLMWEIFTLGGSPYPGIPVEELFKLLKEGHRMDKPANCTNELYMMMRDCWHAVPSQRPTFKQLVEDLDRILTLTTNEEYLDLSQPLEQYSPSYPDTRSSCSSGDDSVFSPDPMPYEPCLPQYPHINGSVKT

B1: Ab 26c (chimeric antibody based on Ab 26) (antibody, V domains shown)
VH: DVHLQESGPGLVKPSQSLSLTCSVTGYSITSGYYWNWIRQFPGNKLEWMGYITYDGSNNYNPSLKNRLSITRDTSKNQFFLQLSSLTTEDTATYFCARVYYYGSGNFDVWGTGTTVTVSS
VL: SIVMTQTPKILLVSAGDRVTITCKASQSVSNDVAWYQQKPGQSPKLLIYYASNRYTGVPDRFTGSGYGTDFTFTISTVQAEDLAVYFCHQDHTSPFTFGSGTKLEIK
notes: Mouse VH and VL fused to a human heavy chain constant region and a human light chain constant region; also called chimeric Ab26c
[1]
  EC50 (read off the curve): ~0.6 nM
[2]
  EC50 (read off the curve): ~0.2 nM
[3]
  ADCC EC50, KATOIII target cells with human NK effector cells (E/T 8:1): 0.034 µg/mL
[4]
  EC50: ~3 nM
[5]
  Kd: 1.68 nM
[6]
  koff: 0.00017 s⁻¹
  kon: 101000 M⁻¹ s⁻¹
[7]
  Kd: 3.21 nM
[8]
  koff: 0.000552 s⁻¹
  kon: 172000 M⁻¹ s⁻¹
[9]
  EC50 (read off the curve): ~0.2 nM

B2: Ab 26 (mouse monoclonal antibody) (antibody, V domains shown)
VH: B1 VH
VL: B1 VL
notes: Mouse hybridoma antibody; also called mouse Ab 26
[10]
  EC50 (read off the curve): ~0.1 nM
[11]
  binding result: no binding (tested: about 10^-7.3 M (about 5e-8 M))
[12]
  EC50 (read off the curve): ~0.08 nM
[13]
  binding result: no binding (tested: about 10^-7.3 M (about 5e-8 M))
